The assay deals with protein G B1. In words: quartz crystal microbalance with dissipation monitoring (QCM-D); protein G B1 adsorbed from 5 ug/ml in PBS onto polystyrene-coated gold quartz sensors, rinsed, then IgG flowed at 5 ug/ml in PBS, 150 ul/min, pH 7.4, 22 °C; mass by the Sauerbrey equation.

Consider IgG antibody, for which the Sauerbrey mass bound amounted to 350 ng/cm^2.

Values taken from publication PMC5148762.
